Experimental data taken from patent EP3370777B1.

Biological target: His-tagged eukaryotic Elongation Factor 2 (eEF2) expressed in S. cerevisiae
Experiment: cell-based or functional assay

recombinant Exotoxin A (SEQ ID NO: 4), expressed in E. coli NiCo21(DE3) as His-tagged SUMO fusion, SUMO-tag removed (enzyme)
ADP-ribosylation activity EC50 [µg/µl] (Example 1, soluble fraction): 0.6 µg/µL | ADP-ribosylation activity EC50 [µg/µl] (Example 2, method of the invention): 0.52 µg/µL
